Data from patent publication JP2019218309A (dated 2019).
No end group written: not given here.

What was measured:
GIP(1−42) (active GIP) = target: T1, GIP(1−42) (active GIP); assay: sandwich ELISA: anti-total GIP monoclonal antibody as capture, biotinylated m1 at 1 ug/mL as detection, GIP at 8.2-2000 pg/mL
T1 construct: a Human (total) GIP ELISA kit was used; also called 活性型GIP; GIP(1-42)
T1 peptide: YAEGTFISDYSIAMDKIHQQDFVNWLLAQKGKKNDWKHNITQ

GIP(3−42) (inactive GIP) = target: T2, GIP(3−42) (inactive GIP); assay: sandwich ELISA: anti-total GIP monoclonal antibody as capture, biotinylated m1 at 1 ug/mL as detection
T2 construct: also called 非活性型GIP; 不活性型のGIP(3−42)
T2 peptide: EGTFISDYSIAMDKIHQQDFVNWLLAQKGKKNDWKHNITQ

[1] = target: T3, 測定用抗原(2): PEG化GIP(3−15) (PEGylated N-terminal 13 amino acids of inactive GIP) (also: PEGylated, site not given here); assay: ELISA, immobilised PEGylated peptide, hybridoma culture supernatant
T3 construct: also called GIP(3-15)
T3 peptide: EGTFISDYSIAMD

[2] = target: T4, 測定用抗原(1): PEG化GIP(1−15) (PEGylated N-terminal 15 amino acids of active GIP) (also: PEGylated, site not given here); assay: as above
T4 construct: also called GIP(1-15)
T4 peptide: YAEGTFISDYSIAMD

- binding result (GIP(1−42) (active GIP)): binds
- binding result (GIP(3−42) (inactive GIP)): no binding
- binding result [1]: no binding
- binding result [2]: binds
B1: ハイブリドーマ9B9H5−B9株から産生されるモノクローナル抗体 (anti-active GIP monoclonal antibody of hybridoma 9B9H5-B9) (antibody, V domains shown)
VH: QVQLQQPGAELVKPGASVKLSCKASGYTFTSFWMHWVIQRPGQGLEWIGEMNPSDGRTHFNEKFKTKATLTIDTSSNTAYMELNSLTSEDSAVYYCARRMEDWGQGTLVTVSA
VL: DIKMTQSPSSMYASLGERVTITCKASQDINSYLGWFQQKPGKSPKTLIYGANRLVDGVPSRFSGSGSGQDYSLTISSLEYDDMGIYYCLQYDEFPLTFGAGTKLELKR
notes: Mouse (BALB/c) hybridoma monoclonal antibody, purified on Protein A; also called 抗活性型GIP抗体; 抗活性型GIPモノクローナル抗体
